Values of other authors, collected in publication PMC7599994.

Biological target: HIV-1 capsid CA CTD (Human immunodeficiency virus 1) (UniProt O93182)

For “HIV-1 capsid CA CTD (from UniProt O93182)”, the Kd is given as 10 µM.
